Target: BST4-mScarlet-I (Chlamydomonas reinhardtii)
Assay: Slimfield microscopy with single particle tracking and molecular counting

Q: How did the interval between stoichiometry peaks turn out when BST4-mScarlet-I (natural protein) was run?
A: 5

Q: What about the stoichiometry N of the same substance?
A: 5

Reference: paper doi:10.1101/2023.06.15.545204
